{
  "source": "paper PMC2748697",
  "about": "“Capzb2 Interacts with β-Tubulin to Regulate Growth Cone Morphology and Neurite Outgrowth” (PLoS Biology, 2009)",
  "target": "T1, GST-Capza2 (mouse, UniProt P47754 1-286)",
  "T1 construct": "Capza2, α2 subunit of F-actin capping protein, from E17 mouse cDNA; primers run from the start codon (atg gcg gat ctg) to the stop codon; pGEX-4T-2 vector; The methods of the native gel say 'Capza2', the legend 'GST-Capza2'; also called α2-subunit; the other CP subunit; source: E. coli BL21-DE3 or ArcticExpress (DE3)RP, purified (glutathione sepharose)",
  "experiment": "native gel or EMSA; 1 µM GST-Capzb2 or GST-Capzb2Δ106–140 with 1 µM GST-Capza2, 10 min at 4°C, 4%–20% Tris-glycine native gel, bands excised and identified by Western blot",
  "settings": "both partners purified",
  "data": [
    {"binder": "GST-Capzb2Δ106–140 (natural protein, mouse, UniProt P47757-2 1-272, looked up, pGEX-4T-2 vector; also called deletion mutant; source: E. coli BL21-DE3 or ArcticExpress (DE3)RP, purified (glutathione sepharose)) MSDQQLDCALDLMRRLPPQQIEKNLSDLIDLVPSLCEDLLSSVDQPLKIARDKVVGKDYLLCDYNRDGDSYRSPWSNKYDPPLEDGAMPSARLRKLEVEANNAFDSKKIKGCWDSIHVVEVQEKSSGRTAHYKLTSTVMLWLQTNKSGSGTMNLGGSLTRQMEKDETVSDCSPHIANIGRLVEDMENKIRSTLNEIYFGKTKDIVNGLRSVQTFADKSKQEALKNDLVEALKRKQQC", "values": [
      {"measurement": "binding result", "value": "binds"}
    ]}
  ]
}
